Results as given in patent US20130224187A1 (Alexion, published 2013).

T1: human C4a (human, UniProt P0C0L4 680-756)
T1 construct: domain: C4a
T1 sequence (looked up): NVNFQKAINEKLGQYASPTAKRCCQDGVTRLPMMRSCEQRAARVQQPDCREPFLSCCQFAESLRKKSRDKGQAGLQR

T2: human C5a (human, UniProt P01031 678-751)
T2 construct: also called hC5a; free human C5a
T2 sequence: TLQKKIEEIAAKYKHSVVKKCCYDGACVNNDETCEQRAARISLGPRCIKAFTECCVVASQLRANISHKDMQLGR

T3: human C5a desarg (human, UniProt P01031 678-750)
T3 construct: also called desarginated C5a; hC5a desarg
T3 sequence: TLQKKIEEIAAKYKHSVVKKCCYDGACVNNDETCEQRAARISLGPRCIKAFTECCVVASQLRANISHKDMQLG


What was measured:
human C4a [1] = target: T1, human C4a; experiment: Octet analysis
human full-length C5 [2] = target: T4, human full-length C5 (human, UniProt P01031 19-673; P01031 678-1676); experiment: Octet analysis
T4 construct: mature; also called uncleaved human C5; native, fully-folded human C5
Target sequence in this assay (P01031 19-673 limits assumed, chain 1 of 2): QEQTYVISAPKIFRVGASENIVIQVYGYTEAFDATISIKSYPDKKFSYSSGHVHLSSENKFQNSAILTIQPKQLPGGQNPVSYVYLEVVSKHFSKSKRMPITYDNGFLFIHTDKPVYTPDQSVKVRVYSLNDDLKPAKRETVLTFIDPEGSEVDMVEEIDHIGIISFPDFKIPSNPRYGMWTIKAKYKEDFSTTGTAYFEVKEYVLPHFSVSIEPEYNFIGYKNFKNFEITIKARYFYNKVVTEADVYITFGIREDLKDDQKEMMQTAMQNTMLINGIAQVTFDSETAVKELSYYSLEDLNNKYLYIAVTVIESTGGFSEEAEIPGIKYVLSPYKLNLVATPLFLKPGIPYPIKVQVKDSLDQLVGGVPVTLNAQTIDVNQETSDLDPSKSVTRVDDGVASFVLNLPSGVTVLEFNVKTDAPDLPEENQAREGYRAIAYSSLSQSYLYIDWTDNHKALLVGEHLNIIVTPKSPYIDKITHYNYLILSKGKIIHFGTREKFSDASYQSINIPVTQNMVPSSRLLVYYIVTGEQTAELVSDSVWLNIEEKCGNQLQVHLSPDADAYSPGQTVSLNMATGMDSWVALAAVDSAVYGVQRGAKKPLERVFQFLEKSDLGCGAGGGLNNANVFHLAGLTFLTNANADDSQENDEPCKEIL
Target sequence in this assay (P01031 678-1676 limits assumed, chain 2 of 2): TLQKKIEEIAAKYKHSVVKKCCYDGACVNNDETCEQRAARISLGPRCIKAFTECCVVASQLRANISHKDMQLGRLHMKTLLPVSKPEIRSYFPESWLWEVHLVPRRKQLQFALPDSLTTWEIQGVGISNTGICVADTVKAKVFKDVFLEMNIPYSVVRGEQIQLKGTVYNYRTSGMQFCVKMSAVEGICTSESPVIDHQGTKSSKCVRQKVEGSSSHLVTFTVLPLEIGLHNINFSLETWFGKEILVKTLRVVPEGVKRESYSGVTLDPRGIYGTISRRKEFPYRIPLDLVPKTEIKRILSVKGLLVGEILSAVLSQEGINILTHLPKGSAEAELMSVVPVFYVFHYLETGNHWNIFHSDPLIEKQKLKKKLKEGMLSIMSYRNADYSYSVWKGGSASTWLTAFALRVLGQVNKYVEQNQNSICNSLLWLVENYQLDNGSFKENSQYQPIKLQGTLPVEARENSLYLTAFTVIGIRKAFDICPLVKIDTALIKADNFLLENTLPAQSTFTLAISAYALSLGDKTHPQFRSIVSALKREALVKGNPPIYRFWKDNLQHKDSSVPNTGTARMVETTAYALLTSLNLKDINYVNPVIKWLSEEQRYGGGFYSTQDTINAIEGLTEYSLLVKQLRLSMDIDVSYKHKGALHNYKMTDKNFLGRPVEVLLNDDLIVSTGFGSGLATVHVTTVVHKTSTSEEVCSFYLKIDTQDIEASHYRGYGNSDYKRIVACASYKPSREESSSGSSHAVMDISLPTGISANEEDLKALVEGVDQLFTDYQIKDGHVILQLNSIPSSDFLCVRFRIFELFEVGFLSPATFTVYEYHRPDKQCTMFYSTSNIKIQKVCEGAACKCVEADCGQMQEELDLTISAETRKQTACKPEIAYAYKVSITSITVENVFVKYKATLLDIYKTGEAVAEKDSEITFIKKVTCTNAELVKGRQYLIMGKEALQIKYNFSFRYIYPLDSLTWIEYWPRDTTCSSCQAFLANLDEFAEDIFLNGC

human C3a [3] = target: T5, human C3a (human, UniProt P01024 672-748); experiment: Octet analysis
T5 construct: domain: C3a

human C5a [4] = target: T2, human C5a; experiment: SPR (Biacore); antibody captured by anti-human Fc on CM5 chip, human C5a 0.6-5.9 nM as analyte; 1:1 Langmuir fit
Description: (§1) See, e.g., Karlsson and Larsson (2004) Methods Mol Biol 248:389-415. […] The surface was regenerated with 20 mM HCl, 0.02% P20 after each cycle to remove bound antibody and antigen. The data was evaluated using Biacore BlAevaluation software using a 1:1 Langmuir Model Fit (Rmax:Global Fit; R1:Local Fit). Kinetics information such as (kₐ: Association Rate constant), (kd:Dissociation Rate constant) and KD (Equilibrium Dissociation constant) was obtained from the fit. These experiments were for screening purposes with a minimal number of analyte concentrations (3 to 4) with 1 duplicate.

human C5a [5] = target: T2, human C5a; experiment: SPR (Biacore); summary sentence of Table 4
Description: as §1

human C4a [6] = target: T1, human C4a; experiment: Biolayer interferometry (Octet); biotinylated antigen on streptavidin tip, IgG in solution
Description: (§2) These antibodies were evaluated for specificity using Biolayer Interferometry on an Octet (ForteBio Inc.).

human C3a [7] = target: T5, human C3a; experiment: as above
Description: as §2

human C5a desarg = target: T3, human C5a desarg; experiment: Biolayer interferometry (Octet); biotinylated antigen on streptavidin tip, 20 nM IgG in solution
Description: as §2

human C5a [8] = target: T2, human C5a; experiment: as above
Description: as §2

human C5a [9] = target: T2, human C5a; experiment: Biolayer interferometry (Octet)
human full-length C5 [10] = target: T4, human full-length C5; experiment: Biolayer interferometry (Octet); biotinylated antigen on streptavidin tip, IgG in solution
Target sequence in this assay (P01031 19-673 limits assumed, one chain of several): as the sequence (P01031 19-673 limits assumed, chain 1 of 2) above
Description: as §2

T5 sequence (P01024 672-748 limits assumed): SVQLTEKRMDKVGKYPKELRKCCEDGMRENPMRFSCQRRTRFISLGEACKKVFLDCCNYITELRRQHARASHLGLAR

Binder	binding result (human C4a [1])	binding result (human full-length C5 [2])	binding result (human C3a [3])	binding result (human C4a [6])	binding result (human C3a [7])	binding result (human C5a desarg)	further results
BNJ347 (antibody, V domains shown, also called BNJ347 humanized anti-C5a antibody) VH: QVQLVQSGAEVKKPGASVKVSCKASGYTFTDYSMDWVRQASGKGLEWMGAIHLNTGYTNYNQKFKGRVTITADESTSTAYMELSSLRSEDTAVYYCARGFYDGYSPMDYWGQGTTVTVSS VL: DIVMTQSPDSLAVSLGERATINCRASESVDSYGNSFMHWYQQKPGQPPKLLIYRASNLESGVPDRFSGSGSGTDFTLTISSLQAEDVAVYYCQQSNEDPYTFGGGTKVEIKR	no binding	no binding	no binding	–	–	–	–
BNJ345 (antibody, V domains shown, also called BNJ345 humanized anti-C5a antibody) VH: QVQLVQSGSELKKPGASVKVSCKASGYTFTDYSMDWVRQAPGQGLEWMGAIHLNTGYTNYNQKFKGRVTITADESTSTAYMELSSLRSEDTAVYYCARGFYDGYSPMDYWGQGTTVTVSS VL: DIVMTQSPDSLAVSLGERATINCRASESVDSYGNSFMHWYQQKPGQPPKLLIYRASNLESGVPDRFSGSGSGTDFTLTISSLQAEDVAVYYCQQSNEDPYTFGGGTKVEIKR	no binding	no binding	no binding	–	–	–	–
BNJ346 (antibody, V domains shown, also called BNJ346 humanized anti-C5a antibody) VH: QVQLVQSGAEVKKPGASVKVSCKASGYTFTDYSMDWVRQAPGQGLEWVGAIHLNTGYTNYNQKFKGRVTITADESTSTAYMELSSLRSEDTAVYYCARGFYDGYSPMDYWGQGTTVTVSS VL: DIVMTQSPDSLAVSLGERATINCRASESVDSYGNSFMHWYQQKPGQPPKLLIYRASNLESGVPDRFSGSGSGTDFTLTISSLQAEDVAVYYCQQSNEDPYTFGGGTKVEIKR	no binding	no binding	no binding	–	–	–	–
BNJ354 (antibody, V domains shown, also called BNJ354 humanized anti-C5a antibody) VH: QVQLVQSGAEVKKPGASVKVSCKASGYTFTDYSMDWVRQASGKGLEWMGAIHLNTGYTNYNQKFKGRVTMTRDTSTSTVYMELSSLRSEDTAVYYCARGFYDGYSPMDYWGQGTTVTVSS VL: DIVMTQSPDSLAVSLGERATINCRASESVDSYGNSFMHWYQQKPGQPPKLLIYRASNLESGVPDRFSGSGSGTDFTLTISSLQAEDVAVYYCQQSNEDPYTFGGGTKVEIKR	no binding	no binding	no binding	–	–	–	–
BNJ378 (antibody, human IgG2, kappa, V domains shown, Humanized full length IgG) VH: QVQLVQSGAEVKKPGASVKVSCKASGYTFTDYSMDWVRQAPGQGLEWMGAINPNSGGTNYNQKFKDRVTMTRDTSTSTVYMELSSLRSEDTAVYYCARSGSYDGYYAMDYWGQGTTVTVSS VL: DIQMTQSPSSLSASVGDRVTITCRASESVDSYGNSFMHWYQQKPGKAPKLLIYRASNLESGVPSRFSGSGSGTDFTLTISSLQPEDFATYYCQQSNEDPYTFGGGTKVEIKR	–	–	–	–	–	–	Kd (human C5a [4]): 0.298 nM; koff (human C5a [4]): 0.000576 s⁻¹; kon (human C5a [4]): 1.93e+06 M⁻¹ s⁻¹; Kd (human C5a [5]): < 1 nM
BNJ350 (antibody, V domains shown, also called BNJ350 humanized anti-C5a antibody) VH: QVQLVQSGAEVKKPGASVKVSCKASGYTFTDYSMDWVRQAPGQGLEWVGAINPNSGGTNYSQKFKDRVTITADESTSTAYMELSSLRSEDTAVYYCARSGSYDGYYAMDYWGQGTTVTVSS VL: DIVMTQSPDSLAVSLGERATINCRASESVDSYGNSFMHWYQQKPGQPPKLLIYRASNLESGVPDRFSGSGSGTDFTLTISSLQAEDVAVYYCQQSNEDPYTFGGGTKVEIKR	no binding	no binding	no binding	–	–	–	–
5an178ME (antibody, V domains shown, Full length mouse IgG2a) VH: EVKLVESGGGLVQPGGSRKLSCAASGFTFSDYGMVWVRQAPGKGLEWVAFISSGSSNIYYADTVKGRFTISRDNPKNTLFLQMNSLRSEDTAIYYCGRAFSFYYGYDYWGQGTTLTVSS VL: EIVLTQSPASLAVSLGQRATISCSASESVEYFGTSLMQWYQQKPGQPPKLLIYAASNVESGVPARFSGSGSGTDFSLNIHPVEEDDIAMYFCQQSRKVPWTFGGGTKLEIKR	–	–	–	no binding (tested: 20 nM)	no binding (tested: 20 nM)	binds	binding result (human C5a [8]): binds
5an048ME (antibody, V domains shown, Full length mouse IgG2a) VH: EVRLQQSGPELVKPGASVRISCKASGYTFNDYYYMNWVKQSHGKSLEWIGYIFPKTGGTHYNQRFKGKATLTVDKSSSTAYMELRSLTSEDSAVYYCASGPFAYWGQGTLVTVSA VL: EIVLTQSPAIMSASPGEKVTMTCRASSSVSSSYLHWYQQKSGASPKLWIYSTSNLASGVPARFSGSGSGTSYSLTISSVEAEDAATYYCQQYSGYPLTFGGGTKLEIKR	–	–	–	no binding (tested: 20 nM)	no binding (tested: 20 nM)	binds	binding result (human C5a [8]): binds
5an179ME (antibody, V domains shown, Full length mouse IgG2a) VH: EVQLQQSGPELVKPGASVRMSCKASGYTFTSYLIHWVKQKPGQGLEWIGYIYPFNDGTKNNENFKGKATLTSDKSSSTVYMEVSSLTSEDSAVYYCARSHGPHYYGGSYGYHFDYWGQGTTLTVSS VL: DVVMTQTPLSLPVSLGDQASISCRSSQSLVHSNGNTYLHWYLQKPGQSPKLLIYKVSNRFSGVPDRFSGSGSGTDFTLKISRVEAEDLGVYFCSQSTHVPLTFGAGTKLELKR	–	–	–	no binding (tested: 20 nM)	no binding (tested: 20 nM)	binds	binding result (human C5a [8]): binds
5an101ME (antibody, V domains shown, Full length mouse IgG2a) VH: EVQLQQSGPELVKPGSSVKISCKASGYTFTDYSMDWVKQSHGKSLEWIGAINPNSGGTNYSQKFKDKATLTVDKSSSTAYMELRSLTSEDSAVYYCASSGSYDGYYAMDYWGQGTSVTVSS VL: DIVMTQSPASLAVSLGQRATISCRASESVDSYGNSFMHWYQQKPGQPPKLLIYRASNLESGIPARFSGSGSRTDFTLTINPVEADDVATYYCQQSNEDPYTFGGGTKLEIKR	–	–	–	no binding (tested: 20 nM)	no binding (tested: 20 nM)	binds	binding result (human C5a [9]): binds; binding result (human full-length C5 [10]): no binding (tested: 20 nM)
BNJ366 (antibody, human IgG2, kappa, Humanized full length IgG) heavy: QVQLVQSGAEVKKPGASVKVSCKASGYTFTDYSMDWVRQAPGQGLEWMGAIHLNTGYTNYNQKFKGRVTMTRDTSTSTVYMELSSLRSEDTAVYYCARGFYDGYSPMDYWGQGTTVTVSSASTKGPSVFPLAPCSRSTSESTAALGCLVKDYFPEPVTVSWNSGALTSGVHTFPAVLQSSGLYSLSSVVTVPSSNFGTQTYTCNVDHKPSNTKVDKTVERKCCVECPPCPAPPVAGPSVFLFPPKPKDTLMISRTPEVTCVVVDVSHEDPEVQFNWYVDGVEVHNAKTKPREEQFNSTFRVVSVLTVVHQDWLNGKEYKCKVSNKGLPAPIEKTISKTKGQPREPQVYTLPPSREEMTKNQVSLTCLVKGFYPSDISVEWESNGQPENNYKTTPPMLDSDGSFFLYSKLTVDKSRWQQGNVFSCSVMHEALHNHYTQKSLSLSPGK light: DIVMTQSPDSLAVSLGERATINCRASESVDSYGNSFMHWYQQKPGQPPKLLIYRASNLESGVPDRFSGSGSGTDFTLTISSLQAEDVAVYYCQQSNEDPYTFGGGTKVEIKRTVAAPSVFIFPPSDEQLKSGTASVVCLLNNFYPREAKVQWKVDNALQSGNSQESVTEQDSKDSTYSLSSTLTLSKADYEKHKVYACEVTHQGLSSPVTKSFNRGEC	–	–	–	–	–	–	Kd (human C5a [4]): 0.15 nM; koff (human C5a [4]): 0.000158 s⁻¹; kon (human C5a [4]): 1.05e+06 M⁻¹ s⁻¹; Kd (human C5a [5]): < 1 nM
